Reference: patent publication US20250099548A1, “PHARMACEUTICAL COMPOSITION FOR PREVENTING OR TREATING DEGENERATIVE BRAIN DISEASES, CONTAINING GLUCAGON-LIKE PEPTIDE-1 AND INTERLEUKIN-1 RECEPTOR ANTAGONIST” (GI INNOVATION, INC., priority 2022, published 2025)

B1: GI210B1CN: fusion protein dimer comprising GLP-1 and an Fc domain of IgG4; SEQ ID NO: 22 (protein)
chain: HGEGTFTSDVSSYLEEQAAKEFIAWLVKGGGGGGGSGGGGSGGGGSGGAESKYGPPCPPCPAPEAAGGPSVFLFPPKPKDQLMISRTPEVTCVVVDVSQEDPEVQFNWYVDGVEVHNAKTKPREEQFNSTYRVVSVLTVLHQDWLNGKEYKCKVSNKGLPSSIEKTISKAKGQPREPQVYTLPPSQEEMTKNQVSLTCLVKGFYPSDIAVEWESNGQPENNYKTTPPVLDSDGSFFLYSRLTVDKSRWQEGNVFSCSVLHEALHNHYTQKSLSLSLG
modifications: dimer; GLP-1-IgG4 Fc

Assays:
[1] = in vivo; cited from earlier work
[2] = tested on: Tg-APP/PS1 mice; assay: Aβ plaque deposition in brain tissue, thioflavin S staining; assay type: in vivo, mouse; conditions: Example 2; GI210B1, GI210B1C1, GI210B1CN at 1.2, 0.7778, 1.1745 mg/kg intraperitoneal, 4 times for 2 weeks
Protocol: Accordingly, in order to confirm the effect of treating Alzheimer's disease by intraperitoneal administration of GI210B1, the Tg-APP/PS1 mice administered with GI210B1 (Tg+GI210B1) and the Tg-APP/PS1 mice (Tg+Veh), a control group, were sacrificed, and then the brain tissue was extracted, and Aβ plaques were stained using thioflavin S, and then the degree of Aβ plaque deposition in the parietal cortex, hippocampus, and piriform cortex regions was analyzed.
Specifically, for immunohistochemical analysis using thioflavin S staining, the brain was collected after perfusion for the mouse with 4% paraformaldehyde, and then the brain was further fixed with 4% paraformaldehyde overnight at 4° C. The brain tissue sections were prepared by cutting the fixed brain tissue to a thickness of […] using a vibratome. The prepared brain tissue sections were stained using thioflavin S by a known method. At that time, the stained image was analyzed using MetaMorph Microscopy Automation & Image Analysis software (Molecular device). The amount of plaque was quantified and expressed as the number of plaques per unit area and the sum of the plaque areas.
The Tg-APP/PS1 mice were prepared in the same manner as in Example 1.1 above. The test substance was prepared by diluting GI210B1, GI210B1C1, or GI210B1CN obtained in Preparation Example 1 to 3 in saline. Thereafter, the prepared test substances were each intraperitoneally administered to the 6.5-month-old Tg-APP/PS1 mice at a concentration of 1.2 mg/kg, 0.7778 mg/kg, and 1.1745 mg/kg a total of 4 times for 2 weeks (FIG. 23).
In the same manner as in Example 1.3 above, the mice were sacrificed, and then the brain tissue was extracted, and the degree of Aβ plaque deposition in the parietal cortex, hippocampus, and piriform cortex regions was analyzed using thioflavin S, which stains Aβ plaques.
The Tg-APP/PS1 mice were prepared in the same manner as in Example 1.1 above. The test substance was prepared by diluting GLP-1 (Peptron), GI210B1C1 obtained in Preparation Example 2 and GI212B2 obtained in Preparation Example 4, anakinra (Amgen, Kineret-inj), and the anti-IL-1 antibody (BioXcell, BE0246) in saline to concentrations of 0.0371 mg/kg, 1.1745 mg/kg, 1.8722 mg/kg, 0.2041 mg/kg, and 1.77 mg/kg, respectively. Thereafter, the prepared test substances were intraperitoneally administered to the 6.5-month-old Tg-APP/PS1 mice a total of 4 times for 2 weeks, as shown in Table 6 below (FIG. 30). […]
In the same manner as in Example 1.3 above, the mice from each group were sacrificed, and then the brain tissue was extracted, and the degree of Aβ plaque deposition in the parietal cortex, hippocampus, and piriform cortex regions was analyzed using thioflavin S, which stains Aβ plaques.

[3] = tested on: Tg-APP/PS1 mice; assay: MAP-2 immunofluorescence staining of hippocampal CA1 region; assay type: in vivo, mouse; conditions: Example 2; GI210B1, GI210B1C1, GI210B1CN at 1.2, 0.7778, 1.1745 mg/kg intraperitoneal, 4 times for 2 weeks
Description: Long-term memory is regulated at synapses between axons of neurons and dendrites of target neurons, and the microstructure of neurons is greatly influenced by the state of neuron health. Changes in the microstructure of dendrites of neurons are important for maintaining memory. The microstructure of the dendrites of such neurons can be observed as an image by staining with an anti-MAP-2 antibody (GeneTex, CatNo. GTX133109) located in the dendrites.
Therefore, in order to determine the mechanism of action of cognitive function improvement and memory recovery effects of GI210B1, the Tg-APP/PS1 mice administered with GI210B1 (Tg+GI210B1), the wild type mice (WT) as a normal group, and the Tg-APP/PS1 mice (Tg or Tg+Veh) as a control group were sacrificed, and then the brain tissue was extracted, and the microstructural status of the dendrites (dendritic process) of the hippocampus was analyzed.
In the same manner as in Example 1.4.1 above, the mice from each group were sacrificed, and then the brain tissue was extracted, and the microstructural status of the dendrites of the hippocampus was analyzed.

Molecule	biological half-life [1]	amount of plaque deposited in the brain (number of plaques per unit area and sum of plaque areas) [2]	expression level of MAP-2 in the CA1 region of the hippocampus [3]
wild type GLP-1: wild type glucagon-like peptide-1, cleaved and inactivated by DPP-4 in vivo; SEQ ID NO: 1	1-2 minutes		
B1		tended to be reduced	higher than that of the control group (Tg+Veh)
